Measured values taken from publication doi:10.1101/2024.01.05.574393.

Molecular target: HSPB7ACD (α-crystallin domain, residues 78-162 of isoform 2) (human)
Experiment: native MS

Binder | Kd [nM]
FLNCd24 (domain 24 of filamin C, residues 2630-2724), wild type (domain or fragment) GSKFSSDASKVVTRGPGLSQAFVGQKNSFTVDCSKAGTNMMMVGVHGPKTPCEEVYVKHMGNRVYNVTYTVKEKGDYILIVKWGDESVPGSPFKVKV | 3.9
FLNCd24 T2677D (phospho-mimic, residues 2630-2724) (domain or fragment) GSKFSSDASKVVTRGPGLSQAFVGQKNSFTVDCSKAGTNMMMVGVHGPKDPCEEVYVKHMGNRVYNVTYTVKEKGDYILIVKWGDESVPGSPFKVKV | 14.1
FLNCd24 Y2683E (phospho-mimic, residues 2630-2724) (domain or fragment) GSKFSSDASKVVTRGPGLSQAFVGQKNSFTVDCSKAGTNMMMVGVHGPKTPCEEVEVKHMGNRVYNVTYTVKEKGDYILIVKWGDESVPGSPFKVKV | 2.2
